Data as given in paper PMC3169474.

Tested on: TBP2
Assay: pull-down
Conditions: negative control, biotin-dUTP/dATP fill-in, 20 mM Tris pH 8.0, 1 mM EDTA, 5 mM DTT, 5 mM MgCl2, 100 mM KCl, 0.125% NP40, protease inhibitors, overnight at 4 C, washes 100-200 mM KCl (up to 400 mM tested)

Sequence	binding signal (very low affinity, 5-methylcytosine at CpG (SssI), both strands)	binding signal (residual affinity)
GATCCCGGAGTTAA / GATCTTAACTCCGG [methylated concatamerized GATC-CCGG-AGTTAA probe (SssI+)]	< 1 % recovered	
GATCCCGGAGTTAA / GATCTTAACTCCGG [unmethylated concatamerized GATC-CCGG-AGTTAA probe (SssI-)]		4 % recovered
